This sample holds only a part of the variants without activity.
B1: TPR 5TU (parent)
chain: GGAUCUUCUCGAUCUAACAAAAAAGACAAAUCUGCCACAAAGCUUGAGAGCAUCUUCGGAUGCAGAGGCGGCAGCCUUCGGUGGCGCGAUAGCGCCAACGUUCUCAACUAUGACACGCAAAACGCGUGCUCCGUUGAAUGGAGUUUAUCAUG

Variants of: B1
Assay: polymerase ribozyme fitness, log enrichment relative to wild type (log ratio); higher = more active; in vitro selection for triplet polymerase activity
How it was run: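 A single round of triplicate in vitro selection, including frozen incubation at −7 °C, was applied to PCR-built, transcribed mutant libraries of each subunit of a heterodimeric triplet polymerase ribozyme. Illumina sequencing of input and output libraries retained genotypes with ≥10 input reads and ≥1 read per output. Fitness is the base-2 logarithm of genotype enrichment divided by wild-type enrichment, from inverse-variance-weighted replicate averages.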

Row | Variant | polymerase ribozyme fitness (log ratio)
1 | G50A C54U C85U G92U U148A | ≤ -4.2
2 | G50C C95A | -2.7
3 | G48A A52G C116U | -0.319
4 | G50A A120G A122U A150U | -2.03
5 | A47G G133C C149G | -3.65
6 | G48C C63A G83A G133C | -3.98
7 | G48A U127G | -3.5
8 | A49G C51A U53C C87G | ≤ -4.2
9 | A49U G141A | -1.34
10 | G50A C85A | -3.59
11 | A47G U55A C116G | -0.139
12 | G50A C75U A91U A150C | ≤ -4.2
13 | G48U G59U | 0.371
14 | G48C G59A C85U C129A | -4.08
15 | G50A U53A C85A U109G A115G C116G G126C | ≤ -4.2
16 | A49G C54U U109G | -2.26
17 | G48A C93G | -3.69
18 | A47U C51U C87U A113U G152A | -3.99
19 | G48U A49C G68U G74A C76A G88U C116G | ≤ -4.2
20 | A49U A60U G81U A106G C118A U134C | -3.51
21 | G48U U134G | -2.34
22 | G50C G71A C95U G117C G143A | ≤ -4.2
23 | A47C U53A C95U G136C | -3.62
24 | A49U G59A C85A | -3.41

Row | Variant | polymerase ribozyme fitness (log ratio)
25 | G50A C54G U77G A97U A120G | ≤ -4.2
26 | A49C U56C | ≤ -4.2
27 | G50C A98G | -3.37
28 | A47U C114U | -1.72
29 | A49C G141U | -3.13
30 | A49G C51G U78C C96G | -4.14
31 | A49U A150U | -0.0151
32 | A49C G124U | ≤ -4.2
33 | G48A G62A A73U A91G C95G U139A A142C | ≤ -4.2
34 | A49U C93A | -3.3
35 | G50C C54U C87A U135C U144C | ≤ -4.2
36 | A47C U151G G152A | -4.19
37 | G50A C51G G83U G84A G141U | ≤ -4.2
38 | G50A U61A G81U G83C A91U U104G G143A | ≤ -4.2
39 | A49C G81C C85U A98U U104C | ≤ -4.2
40 | G48C A120C | -0.573
41 | G50C A52C U77C C79A U101G A115U | ≤ -4.2
42 | G50A A52C C72G A97C C99A U139C G143A | ≤ -4.2
43 | A47U G84U | -1.78
44 | G48U U56A C87G U90C | -4.07
45 | G48A G67U G84U C105G | ≤ -4.2
46 | A47U C95U A115G | -2.68
47 | A49C G62A C87A G140C | ≤ -4.2
48 | G48U A73G | -1.15

Row | Variant | polymerase ribozyme fitness (log ratio)
49 | G48A A60G G83U G126U U134C | -3.58
50 | G50A A98U G126A | -1.26
51 | G50A U55A | -1.34
52 | A49C G65U G84U C96U A121U C125G | ≤ -4.2
53 | A47G U55A G84U G128A | ≤ -4.2
54 | A49U C51A U55G C95A | -2.79
55 | A49U G50A C85G C116G A121U | -1.16
56 | G50A U55G C87U | -1.24
57 | G48C C76A C93U G94A A138C G140A U146G | ≤ -4.2
58 | G50A C116A | -0.537
59 | G48C C96G C103G C105G A106G | -3.96
60 | G50A C93U A142U | -3.71
61 | G50A U56A G88C A106G | ≤ -4.2
62 | A47G G59A | 0.381
63 | G50C C54U U56A G59U | -3.48
64 | G48C C99U C105G | ≤ -4.2
65 | A49C G71A | ≤ -4.2
66 | A47G C85G U90C G124U | ≤ -4.2
67 | A47C U56C G68A C125U | -4.09
68 | G48C A73U U101C U104A A115G G124U | ≤ -4.2
69 | A47U G83U A122U | -0.574
70 | A49G G50A G84A A97G | -3.11
71 | G50C A73U G80A G81U C95A G100U U151C | ≤ -4.2
72 | G50C C87U G100A | ≤ -4.2

Row | Variant | polymerase ribozyme fitness (log ratio)
73 | A49C G81A G92U C93U G140U G152C | ≤ -4.2
74 | G48C C51A C54A C63U G68A U77C G88A C96U A142G | ≤ -4.2
75 | G48A C85G C125G | -4.1
76 | G48C U61A U77A C125U U144A | ≤ -4.2
77 | A49C A64U G67U G68A G71A | ≤ -4.2
78 | G48C G83U | -1.41
79 | A49C A64U C87A U104G G143A | ≤ -4.2
80 | G48A A150U | -0.592
81 | G48C C85U U102G U104A C118U C125A | -4.14
82 | G50C U55G G67A C75A C87U U134G A137G | ≤ -4.2
83 | G48A U56A U109G | -1.39
84 | A47C U55A C87G A91G A150G | ≤ -4.2
85 | A49U G84U A97C G126C A138G A150G | ≤ -4.2
86 | A49U G67A C95U C114G A142C | ≤ -4.2
87 | A49U U55C U56A A73U C93U G117C | ≤ -4.2
88 | A47U G58C U61G G81A | -3.65
89 | A49G U53A | -1.54
90 | G50C G65A | -3.27
91 | A49U C57U C93G C103G U144C | ≤ -4.2
92 | G50A C57U C76U C125U A142C U144G A150G | -3.98
93 | G50C G74C A120G G124U G126A | ≤ -4.2
94 | A47G C54A | -1.65
95 | G48C G62C C108G A137U U146A | ≤ -4.2
96 | A47G G50A A52U C63A A142C | ≤ -4.2

Row | Variant | polymerase ribozyme fitness (log ratio)
97 | A49U G68C | ≤ -4.2
98 | A47G C87A U90G A98G C99A G117C C149A | ≤ -4.2
99 | A49G C51A G94A G124U | -3.32
100 | G50C G80C C93A A98U | ≤ -4.2
101 | A49C C99U U102G | -0.308
102 | G50C G58A | -1.56
103 | G50A G94U | -3.07
104 | G50A G70A C75A | ≤ -4.2
105 | G48A A73G C87G A89U C96A G136A | ≤ -4.2
106 | A49G G117A | -0.467
107 | A49G G117U | -0.367
108 | G48A U55A A119U G124U U144C | -1.13
109 | G48A U55A | -1.14
110 | A47C U61C C96U | -3.35
111 | A49C G59C A91U | ≤ -4.2
112 | A49G A52C G86C | -3.61
113 | G48A G62A G68C U78G C87A A91U A98U | ≤ -4.2
114 | A49G C69U | -1.39
115 | A47G C51G C76U C87U U104G A107U U151C | ≤ -4.2
116 | A49U C54U G88C U90A C114U A142C | ≤ -4.2
117 | A49G G68U G133A | ≤ -4.2
118 | G48A G67U G80C C85U C132U | ≤ -4.2
119 | G50A C54U G80A U82G G88A G92A C93G U145A | ≤ -4.2
120 | A49G C54A C116G A121U | -2.34

Row | Variant | polymerase ribozyme fitness (log ratio)
121 | G50A U55A A97C A147U U148A | ≤ -4.2
122 | A47U G81A C125G A150C | ≤ -4.2
123 | G50A C75U C96A A97U | ≤ -4.2
124 | A47U C95U | -0.679
125 | G50C A137C G141U | ≤ -4.2
126 | G50C A89U G94U C96U A115G | ≤ -4.2
127 | G50A U55A A91U U135C | ≤ -4.2
128 | A49G A52C U56A A91G G92A A121G | -3.9
129 | G50A A73U C96G A98U A120U A137G | ≤ -4.2
130 | G50C G83C G88U U146A | ≤ -4.2
131 | A47U U55A C87U | -2.17
132 | G50A G136U | -2.96
133 | G50C G94A U127C G133U A138C | ≤ -4.2
134 | A49C A137C | ≤ -4.2
135 | A47U U61A | -1.41
136 | A47C U56G A91U C96G C118U A122C C131U U139C U148A | ≤ -4.2
137 | A49C C57U G74U U90A C93G C95U C103G A138C | ≤ -4.2
138 | G48A C75U C87A G143A | ≤ -4.2
139 | A49G G50U C87G U144G | ≤ -4.2
140 | G50A C108A G124U U148G | ≤ -4.2
141 | A47C U55A C57A G84U C96U C99U G136A G143C | ≤ -4.2
142 | G50A U56A C87U G124A | -2.44
143 | G50A G88A C95U C123G U139G U151G | ≤ -4.2
144 | A47U C96A G126A C129A A137U | ≤ -4.2

Row | Variant | polymerase ribozyme fitness (log ratio)
145 | G50A G84A A142C | -3.15
146 | A47U A49G A98G U101A | ≤ -4.2
147 | G48C G80A C85U A120U A137G | ≤ -4.2
148 | G48U U55G C118G C131U A137C U145A | ≤ -4.2
149 | G48A A137G C149U | -3.82
150 | A47G G50C G71C G94A U134C | ≤ -4.2
151 | A47U U56A A122G U127C | -2.55
152 | G50A C76A C96U | -3.13
153 | A49G U55G G88A U139C U145A | ≤ -4.2
154 | A49U A73U G88A C105A U144A | ≤ -4.2
155 | A47C U61A | -3.21
156 | A49C U53G U56C A119C | ≤ -4.2
157 | A47G U55A C79G C93U | ≤ -4.2
158 | G50C C85A C93A | ≤ -4.2
159 | A47U C54U U56A G84C C99A C108U C114U G126U | ≤ -4.2
160 | A49G G88U C96G U144C U148C U151G | ≤ -4.2
161 | A49G C85U G117U U135C G143C | -4.06
162 | G48C G59C G92U C99G A106U | ≤ -4.2
163 | A47U G81C C85G G86U C95U A106C G143A | ≤ -4.2
164 | G48C C85A C118A | -1.39
165 | G50C G86A C103G G124U C125U G126C | ≤ -4.2
166 | A49G G58C | -0.689
167 | G50C G71U A97U | ≤ -4.2
